Test results from the nanobody polyreactivity screen of Harvey et al. (2022).

Experiment: yeast display, Sf9 membrane polyspecificity reagent, FACS + sequencing; frameworks hold sequencing errors
Procedure, shortened: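 Galactose induction of a Saccharomyces cerevisiae BJ5465 synthetic nanobody display library ran 36–48 hours. The cells were then stained for 1 hour at 4 °C with 10% biotinylated, detergent-solubilized Sf9 membrane reagent, pulled down on streptavidin microbeads and FACS-sorted into low and high (top ~1%) gates on expression and reagent-binding fluorescence. Labels for polyreactivity follow the gate of origin.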

Sequence	polyreactivity (PSR sort gate)
QVQLVESGGGLVQAGGSLRLSCAASGRTFQYYAMGWYRQAPGKERELVAAINQGGGRTYYADSVKGRFTISRDTAKNTVYLQMNSLKPEDTAVYYCAADGLSKFDYWGQGTQVTVSS	low polyreactivity
QVQLVDSGGGLVQAGGSLRLSCAASGSTFYYNAMGWYRQAPGKERELVARISRSGGSTYADSVKGRFTISRDNAKNTFYLQMNSLKPEDTAVYYCNADAYGTPEFTSYAVCYDYWGQGTQVTVSS	low polyreactivity
QVQLVESGGGLVQAGGSLRLSCAASGFIFWGNAMGWYRQAPGKERELVAAINYSGGRTYYSDSVKGRFTISRDNAKNTVYLQMNSLKPEDTAVYYCAATGPVNRASYDYWGQGTQVTVSS	high polyreactivity
QVQIVESGGGLVQAGGSLRLSCAASGRIFVPYVMGWYRQAPGKERELVASISDSDTSTYYADSVKGRFTISRDNAKNTVYLQMNSLKPEDSAVYYCAAGVLRRATELYYWGQGTQVTVSS	low polyreactivity
QVQLVESGGGLVQAGGSLRLSCAASGSIFRWNAMGWYRQAPGKERELVAAIDSGGSTYADSVKGRFTISRDNAKNTVYLQMNSLKPEDTAVYYCAAAIPDEWPYDYWGQGTQVTVSS	low polyreactivity
QVQLVESGGGLVQAGGSLRLICAASGSTFTPNDMGWYRQAPGKERELVADISNYADSVKGRFTISRDNAKNTVYLQMNSLKPEDSAVYYCAAEWGGDRYGLYVVSWWYDYWGQGTQVTLSS	low polyreactivity
QVQLVESGGGLVQAGGSLRLSCAASVIIFNLYAMGWYRQAPGKERELVAAISWSGGSTYYADSVKGRFTISRDNAKNTVYLQMNSLKPEDPAVYYCATSFLYPYFDEDDYWGQGTQVTVSS	high polyreactivity
QVQLVESGGGLVQAGGSLRLSCAASGRIFYPYAMGWYRQAPGKERELVARITWTTTSTYYADSVKGRFTISRDNAKNTVYLQMNSLKPDDTAVYYCAADGRVRTWGNLRDYWGQGTQVTVSS	high polyreactivity
QVQLVESGGGLVQAGGSLRLSCAASGLTFGNYAMGSYRQAPGKERELVAAITSGGSTYYADSVKGRFTISRDNAKNTVYLQMNSLKPEDTAVYYCAKRQSQHYRSYLMDYWGQGTQVTVSS	low polyreactivity
QVQLEESGGGLVQAGGILRLSCAASGSTFVNNAMGWYRQAPGKERELVAAITSGSRTKYADSVKGRFTMSLDNAKYTVYFQMNSLQPEDTAVYYWNTMRVGWGQGTQVTVSS	high polyreactivity
QVQLVESGGGLVQAGCSLRLSCAASGFIFQANAMGWYRQAPGKERELVAAIDDGDSTYADSVKGRFTISRDNAKNTVYLQMNSLKPEDTAVYYCNADLYGAQDRRLDYYAEGYWGQGTQVTVSS	low polyreactivity
QVQLVESGGGLVQAGGSLRLSCAASGSTFLDNAMGWYRQAPGKETELVAAITQSGSSTYYADSVKGRFTISRDNAKNTVYLQMNSLKPEDTAVYYCAADVPNISFDYWGQGTQVTVSS	low polyreactivity
QVQLVESGGGLVQAGGSLRLSCAASGRTFSSYAMGWYRQAPGKERELVAAINWSGASTYYADSVKGRFTISRDNAKNTVYLQMNSLKPEDTAVYYCAKSLYVGKYWQIRSSVDYWGQGTQVTVSS	low polyreactivity
QVQLVESWGGLVQAGGSLRLSCAASGFTFTRNAMGWYRQAPGKERELVAAISKSGGRTYYADSVKGRFTISRDNAKYNVYLQMNSLKPEDTAVYYCAVVPRPFGLGSDYDYWGQGTQVTVSS	high polyreactivity
QVQLVESGGGLVQAGGSLRLSCAASGIIFYDYAMGWSRQAPGKERELVATITRGGGTKYADSVKGRFTISRDNAKNTVYLQMNSLKPEDTAVYYCAADSHGVYEGDYWGQGTQVTVSS	low polyreactivity
QVQLVESGGGLVQAGGSLRLSCAASGITFGANTMGCYRQAPGKERELVSAITISGGITHYADSVKGRVTISRDNAKHTVYLQLNSLKPEDTAVNYCAAGAYWRLYPYRQRNGGRRYYWGQGTQVTVSW	low polyreactivity
QVQLVESGGGLVQAGGSLRLSCAASGRICPGYVMGRYRQAPGKERELVAAITSTGRTYYADSVKGRFTISRDNEKKTVYLQMNSLKPEDTAVYYCAAVRSYYRGYDYWGQGTQVTVSS	high polyreactivity
QVQLVESGGGLVQAGGSLRLSCAASGFTFATYDMGLYRQAPGKERELVAAISRSGGRTYYADSVKVLFTISRDYAKNTVYLQMNSLKPEDTAVYYCAKYVPGYPYDYWGQGTQVTVSS	high polyreactivity
QVQQQESAGGLVQAGGSLRLSCAASGNIFVDAYMGWYRQAPGKERELVATFAPADSVKGRFTISRDNAKNTVYLQMYSLKPEDTAVYYCAAFTGYSSVFGYWGQGIQVTVSS	high polyreactivity
QVQLVESGGGLVQAGGSLRLSCAASGGTFAYYAMGWSRQAPGKERELVAAISSGGSTNYADSVKGRFTISRDNAKNTVNLQMNSLKPEDTAGYFCAADYYGPFYGYTYDYWGQGTQVTVSS	low polyreactivity
QGQRVESAGGLVQAGGSLRLSCAASGITFARNVMGWSRQAPGQERELVAAISRGDSTYYADSVKGRFTISRDNAKNTVYLQLNSLKPEDTAVYYCAAAVKHVAYHYNYWGQGTQVTVSS	high polyreactivity
QVQLVESGGGLVQAGGSLRLSCAASGSIFDAYAMGWYRQAPGKERELVAAISSGGNTNYADSVKGRFTISRDNAKNTVDLQMNSLKPEDTAVYYCAADFTHPDGLPGFDYWGQGTQVTVSS	low polyreactivity

Sequence	polyreactivity (PSR sort gate)
QVQLVESGGGLVQAGGSLRFSCAASGRTFGINAMGWYRQAPGKERELVAVITFGDGGTYYADSVKGRFTISRDNAKNTVYLQMNSLNPEDTAVYYCSTDYQSTSVWGGHFVINPYDYWGQGTQVTVSS	low polyreactivity
QVQLVESGGGFVQAGGSLRLSCAASGRIFGQYAMGWYRQAPGKERELVAAISQRGGSTYYADSVKGRFTISRDNAKNTVYLQMNSLKPEDTAVYYCAAPPRLIKSYGYNYWGQGTQVTVSS	high polyreactivity
QVQLVESGGGLVQAGGSLRLSCAASGRIFVGYPMGWYRQAPGKERELVAAITSGGSTYYADSVKGRFTISRDNAKNTVSFQMNSLKPEDTAVYYCNAAYQFDSYHLGGYRYEYWGQGTQVTVSS	low polyreactivity
QVQLVESGGGLVQAGGSLRLSSASSGSIIFLYTMGWYRQAPGKERELVAAIDSVGSTNYADSVKGRFTISRDNAKNTVYLHMNSLKPEDTAVYYCNAYFWVGLYEYDYWGQGTQVTVSS	low polyreactivity
QVQLVESGGGLVQAGGSLRLSCAASGIIFKLNAMGWYRQAPGKEREFVAAITRRGGITFYADSVKGRFTISRDNAKNTVYLQMNSLKPEDTAVYYCAASPGRRRRPYASLIRYDYWGQGTQVTVSS	high polyreactivity
QVQLVESGGGFVQAGGSLSLSCAASGRIFGINAMLWYRQAPGKVRELVAAISSSGANTYYADSVKGRFTISRDNAKNTVYLQMNRLKPEDTAVYYCATKASSYQSPYYYWGQGTQVTVSS	high polyreactivity
QVQLVESGGGLVQAGGSLRLSCAASGRIFRYYAMGWYRQAPGQERELVAAITWSGGSTYYADSVKGRFTISRDNAKNTVYLQMNSLKPEDTAVYYCNAKSYQPFHGDYWGQGTQVTVSS	low polyreactivity
QVQLEESGGGLVQAGGSLRLSCAASGYTFSFYAMGWYRQAPGKERELVAAISRSGGSTYYADSVKGRFTISRDNAKNTVYLQMNSLKPEDTAVYYCAARWPGAYHEYGYWGQGTQVTVSS	high polyreactivity
QVQLQESGGGLVQAGGSLRLSCAASGTISDSGLMGWYRQAPGKERELVAGISSGGITNYADSVKGRFTISRDNAKNTVYMQMNSLKPEDTAVYWGQGSQVTVSS	low polyreactivity
QVQLVESGGGLVQAGGTLRLSCAASGRIFRENAMGWYRQAPGKERELVAAISSGGSTYYADSVKGRFTISRDNAKNTVYLQMNSLKPEDTAVYYCAADLSWSRVVFGDYDYWGQGTQVTVSS	low polyreactivity
QVQLVESGGGIVQAGGSLRLSFAASGSIFEGNALGWYRQEPGKEMEFVAAITKRGGSTYYADSVKGRFTISRDNAKNTVYLQMIWLKPEDTAGYYCAADRSYPRAGRYNYWGQGTQVTVSS	low polyreactivity
QVQLVESGGGLVQAGGSLRLSCAASGITFFRYAMGWYRQAPGKERELVATIRSGDRTYYADSVKGRFTISRDNAKNTVYLQMNSLKPEDTAVYYCAAYDNRYTIRPENYWGQGTQVTVSS	high polyreactivity
QVQLVESGGGLVQAGGSLRLSCAASGSTFEWNAMGWYRQAPGKERELVAAISGTGGNTYYADSVKGRFTISRYNAKNTVYLQMNSLKPEDTAVYYCNTDYGEYSSWDLQWWYIPYDYWGQGTQVTVSS	low polyreactivity
QVQLVESGGGLVQAGGSLRLSCAASGFIFSENAMGWYRQAPGKERELVAAISDGGGSTYYADSVKGRFTISRDNAKNTVYLQMNSLKPEDTAVYYCNAVYHPKGPSGYGYWGQGTQVTVSS	low polyreactivity
QVQLVGSGGGLVQAGGSLRLSCAASGRTFDRNTMGWYRQAPGKERELVAAISSSGGSTYYADSVKGRFTISRDNAKNTVYLQMNSLKPEDTAVYYCAVLSRQYFRYGYDYWGQGTQVTVSS	high polyreactivity
QVQLVESGGGLVQAGGSLRLSCAASGGIFVTYAMGWYRKAPGKERELLAAISANGGDTYYADSVKGRFTISRDNAKTSVYLQMNRLKPEDTAVYYCAADGFLPILHPVPWSYYYPFGYWGQGTHVTVSS	low polyreactivity
QVQLVASGGGLVQAGGSLLLSCAASGSIFDYNAMGWYRKAPGKERELVAAISSSGGSTYYADSVKGRFTISRDNAKNTVYLQMNSLKPEDTAVYYCNNVSRYILGSGYGYWGQGNQVTVSS	high polyreactivity
QVQLLESGGGLVKAGGSLRLSCAPYGSIFYGYAMGWYRPAPGKERELVAAITRSGGSTYYADSVKGRFTITRFNAKNTVYLQMNSLKPEDTAVYYCAAGWRSVSVRYYGPSDYWGQGTQVTVSS	low polyreactivity
QVQLVESGGGLDQAGGSLLLSCPASGRTFGTYAMGLYRQAPGKERELVASITSGDSTNYADSVKGRFTISRDNAKYTVYLQMNSQKPEDTAVYYCNASGYVMVTPPKLSFNYEYWGQGTQVTVSS	low polyreactivity
QVQLEESGGGLVQAGGSLRLSCAASGIIFATYAMGWYRQAPGKDRELVAAISSGGRTYYADSVKGRFTISRDNAKNTVYLQMNSLKPEDTAVYYCAAKSGGRSSLYNYWGQGTQVNVSS	high polyreactivity
QVQLVESGGGLVQEGGSLRLSCAASGSTFRYYAMGWYRQAPGKERELVASISSSGGNTYGDAVKGRFTISRDNAKNTVYLQMNSLKPEDTAVYYCNADWALLYSPPYTYRYGYWGQGTQVTVSS	low polyreactivity
